# B1: methylesterase/deamidase CheB from E. coli, low-activity, unphosphorylated form (enzyme, UniProt P07330 1-349, looked up)
# chain: MSKIRVLSVDDSALMRQIMTEIINSHSDMEMVATAPDPLVARDLIKKFNPDVLTLDVEMPRMDGLDFLEKLMRLRPMPVVMVSSLTGKGSEVTLRALELGAIDFVTKPQLGIREGMLAYNEMIAEKVRTAAKASLAAHKPLSAPTTLKAGPLLSSEKLIAIGASTGGTEAIRHVLQPLPLSSPALLITQHMPPGFTRSFADRLNKLCQIGVKEAEDGERVLPGHAYIAPGDRHMELSRSGANYQIKIHDGPAVNRHRPSVDVLFHSVAKQAGRNAVGVILTGMGNDGAAGMLAMRQAGAWTLAQNEASCVVFGMPREAINMGGVCEVVDLSQVSQQMLAKISAGQAIRI
# notes: CheB methylesterase/deamidase of E. coli, unphosphorylated, from plasmid pCW/cheB; measured with 2 mM DTT in the buffer; also called low-activity CheB; unmodified CheB; source: E. coli K-12 RP3098 with pCW/cheB, purified
# B2: CheBC, catalytic domain of E. coli CheB lacking the regulatory domain and linker (domain or fragment)
# chain: LSSEKLIAIGASTGGTEAIRHVLQPLPLSSPALLITQHMPPGFTRSFADRLNKLCQIGVKEAEDGERVLPGHAYIAPGDRHMELSRSGANYQIKIHDGPAVNRHRPSVDVLFHSVAKQAGRNAVGVILTGMGNDGAAGMLAMRQAGAWTLAQNEASCVVFGMPREAINMGGVCEVVDLSQVSQQMLAKISAGQAIRI
# Legend:
# [1] = target: TarQEQE; conditions: pulldown assay, pentapeptide at carboxyl terminus of TarQEQE in native membrane, unphosphorylated CheB; ref [21]; read-out: equilibrium dissociation constant [KD]; cited from earlier work
# [2] = target: Tar4EΔpp-6H L378C, E. coli Tar lacking the carboxyl-terminal pentapeptide, all-glutamyl form, homodimer in … (E. coli, UniProt P07017 1-553, L378C, biotinylated at L378C); experiment: BLI; BLItz; biotinylated Tar homodimers in Nanodiscs held on an avidin sensor tip, CheB or CheBC in solution; 50 mM Tris-HCl pH 7.5, 10% glycerol, 5 mM MgCl2, 50 mM KCl, 2% BSA, 2 mM DTT; global fit, apparent rate constants, KD calculated from kon and koff; conditions: both partners purified
# [3] = test system: pentapeptide-bearing Tar4E and Tar4Q; experiment: CheB binding to pentapeptide-bearing Tar, 4E and 4Q (biolayer interferometry); set-up: species or system E. coli; conditions: Tar4E versus Tar4Q
# Experimental: We determined the kinetics of association and dissociation of methylesterase/deamidase CheB in its low- and high-activity form with the E. coli aspartate chemoreceptor Tar using biolayer interferometry ([22], [23]) and isolated receptor homodimers in Nanodiscs ([24], [25]). Apparent rate constants of association and dissociation were derived from global fits of time courses for binding and release (see Fig. S1 in the supplemental material). Equilibrium dissociation constants were calculated from those apparent rate constants.
# E. coli CheB and Salmonella CheB D56C/C207S/C309S and D56C/S164A/C207S/C309S were purified as described previously ([11]). CheBC (amino acids [aa] 153 to 349) was purified using the procedure of West et al. ([40]), except that Bio-Gel P-60, was not used. […] The extent of modification was 59% for the former and 60% for the latter determined by reversed phase chromatography essentially as described previously ([26]) and confirmed by Nano LC-Nanospray QTQF mass spectroscopy. […]
# Kinetics of CheB association and dissociation with Nanodisc-embedded Tar biotinylated at L378C were determined using biolayer interferometry ([22], [23]) as measured by a BLItz instrument (ForteBio, Menlo Park, CA, USA) and described in reference. […]
# [4] = target: Tar4Q L378C, E. coli aspartate chemoreceptor Tar, all-glutaminyl form with carboxyl-terminal pentapeptide, … (E. coli, UniProt P07017 1-553, L378C, biotinylated at L378C); experiment: SPR
# [5] = target: Tar4QΔpp-6H L378C, E. coli Tar lacking the carboxyl-terminal pentapeptide, all-glutaminyl form, homodimer in … (E. coli, UniProt P07017 1-553, L378C, biotinylated at L378C); experiment: SPR
# [6] = target: Tar4EΔpp-6H L378C, E. coli Tar lacking the carboxyl-terminal pentapeptide, all-glutamyl form, homodimer in … (E. coli, UniProt P07017 1-553, L378C, biotinylated at L378C); experiment: SPR
# [7] = target: Tar4E L378C, E. coli aspartate chemoreceptor Tar, all-glutamyl form with carboxyl-terminal pentapeptide, … (E. coli, UniProt P07017 1-553, L378C, biotinylated at L378C); experiment: SPR
# [8] = test system: CheB methylesterase; conditions: relative to phosphorylation; ref [8]; cited from earlier work
# Text: A high-activity form of the methylesterase/deamidase, designated CheB-P, is created by phosphorylation at a specific aspartyl residue in its N-terminal regulatory domain ([6][–][8]). However, activation is short-lived because of a high rate of autodephosphorylation ([7]), making it difficult to investigate binding of this activated form of the enzyme to chemoreceptors with confidence. Instead, we used a stable, functionally active mimic of phosphorylated CheB from Salmonella enterica subsp. enterica serovar Typhimurium (hereafter Salmonella) characterized by Saxl and coworkers ([26]). […] To investigate the role binding affinity might have in that activation, we measured binding of CheBC, a form of the methylesterase lacking the amino-terminal regulatory domain and linker, to pentapeptide-bearing and pentapeptide-lacking forms of Tar.
Molecule,Kd [1] [µM],Kd [2] [µM],effect of receptor signaling state on binding [3],Kd [4] [µM],Kd [5] [µM],Kd [6] [µM],Kd [7] [µM],activation by deletion of the regulatory domain [8]
B1,~150,850,the signaling state of the chemoreceptor coiled-coil body did not influence the binding of its pentapeptide to low-activity CheB,–,–,–,–,–
B2,–,–,–,1400,1200,660,590,not as effectively as by phosphorylation

# Reference: article PMC8609364, “A Selective Tether Recruits Activated Response Regulator CheB to Its Chemoreceptor Substrate” (mBio, 2021)
